One molecule from PMC4384728 (The Journal of Cell Biology, 2015) can be followed below.

One assay concerns the target T1, HA-VEGFR3-TMD.
T1 chain: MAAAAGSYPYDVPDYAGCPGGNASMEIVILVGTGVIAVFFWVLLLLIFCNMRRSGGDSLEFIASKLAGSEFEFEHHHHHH
In words: pull-down.

In a further assay the target is T2, HA-VEGFR2-TMD.
T2 chain: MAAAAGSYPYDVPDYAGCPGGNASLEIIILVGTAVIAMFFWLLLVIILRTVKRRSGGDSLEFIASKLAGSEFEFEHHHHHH
Put plainly: pull-down.

B1: Flag-VE-TMD (domain or fragment)
chain: MAAAAGSDYKDDDDKGCPGGNASVSIQAVVAILLCILTITVITLLIFLRRRSGGLNDIFEAQKIEWHESSEFEFEHHHHHH
With B1, the binding result in the assay with HA-VEGFR3-TMD and in the assay with HA-VEGFR2-TMD was “binds” throughout.
